{
  "source": "patent US20230151068A1",
  "target": "biotinylated His-Avi-TEAD (194-411) (UniProt P28347)",
  "assay": "SSM screen, enrichment after two rounds of sorting",
  "data": [
    {"binder": "GSYDEYIERAKECCKKGDIQCCLRYFEESGDPNVMLICLFCP (designed binder)", "note": "[P01Y variant of SEQ ID NO: 1]", "values": [
      {"measurement": "enrichment score", "value": -3.33}
    ]},
    {"binder": "GSPDEYIERPKECCKKGDIQCCLRYFEESGDPNVMLICLFCP (designed binder)", "note": "[A08P variant of SEQ ID NO: 1]", "values": [
      {"measurement": "enrichment score", "value": -4.7}
    ]},
    {"binder": "GSPPEYIERAKECCKKGDIQCCLRYFEESGDPNVMLICLFCP (designed binder)", "note": "[D02P variant of SEQ ID NO: 1]", "values": [
      {"measurement": "enrichment score", "value": -2.11}
    ]},
    {"binder": "GSPDEYIERAKECCKKGGIQCCLRYFEESGDPNVMLICLFCP (designed binder)", "note": "[D16G variant of SEQ ID NO: 1]", "values": [
      {"measurement": "enrichment score", "value": -9.54}
    ]},
    {"binder": "GSPDEYIERAKPCCKKGDIQCCLRYFEESGDPNVMLICLFCP (designed binder)", "note": "[E10P variant of SEQ ID NO: 1]", "values": [
      {"measurement": "enrichment score", "value": -3.72}
    ]},
    {"binder": "GSPDEYIERAKECCGKGDIQCCLRYFEESGDPNVMLICLFCP (designed binder)", "note": "[K13G variant of SEQ ID NO: 1]", "values": [
      {"measurement": "enrichment score", "value": 0.7}
    ]},
    {"binder": "GSPDEYIEYAKECCKKGDIQCCLRYFEESGDPNVMLICLFCP (designed binder)", "note": "[R07Y variant of SEQ ID NO: 1]", "values": [
      {"measurement": "enrichment score", "value": -1.01}
    ]},
    {"binder": "GSPDEYYERAKECCKKGDIQCCLRYFEESGDPNVMLICLFCP (designed binder)", "note": "[I05Y variant of SEQ ID NO: 1]", "values": [
      {"measurement": "enrichment score", "value": -10.9}
    ]},
    {"binder": "GSPYEYIERAKECCKKGDIQCCLRYFEESGDPNVMLICLFCP (designed binder)", "note": "[D02Y variant of SEQ ID NO: 1]", "values": [
      {"measurement": "enrichment score", "value": -1.63}
    ]},
    {"binder": "GSPDEYIPRAKECCKKGDIQCCLRYFEESGDPNVMLICLFCP (designed binder)", "note": "[E06P variant of SEQ ID NO: 1]", "values": [
      {"measurement": "enrichment score", "value": -2.84}
    ]},
    {"binder": "GSPDEYIERAYECCKKGDIQCCLRYFEESGDPNVMLICLFCP (designed binder)", "note": "[K09Y variant of SEQ ID NO: 1]", "values": [
      {"measurement": "enrichment score", "value": -4.96}
    ]},
    {"binder": "GSPDEYIERAKECCKKGDGQCCLRYFEESGDPNVMLICLFCP (designed binder)", "note": "[I17G variant of SEQ ID NO: 1]", "values": [
      {"measurement": "enrichment score", "value": -5.4}
    ]},
    {"binder": "GSPDYYIERAKECCKKGDIQCCLRYFEESGDPNVMLICLFCP (designed binder)", "note": "[E03Y variant of SEQ ID NO: 1]", "values": [
      {"measurement": "enrichment score", "value": -0.36}
    ]},
    {"binder": "GSPDEYIERAKECCKGGDIQCCLRYFEESGDPNVMLICLFCP (designed binder)", "note": "[K14G variant of SEQ ID NO: 1]", "values": [
      {"measurement": "enrichment score", "value": 1.11}
    ]},
    {"binder": "GSPDEYIEPAKECCKKGDIQCCLRYFEESGDPNVMLICLFCP (designed binder)", "note": "[R07P variant of SEQ ID NO: 1]", "values": [
      {"measurement": "enrichment score", "value": -2.49}
    ]},
    {"binder": "GSPDEYIERAPECCKKGDIQCCLRYFEESGDPNVMLICLFCP (designed binder)", "note": "[K09P variant of SEQ ID NO: 1]", "values": [
      {"measurement": "enrichment score", "value": -4.5}
    ]},
    {"binder": "GSPDEYIERAKYCCKKGDIQCCLRYFEESGDPNVMLICLFCP (designed binder)", "note": "[E10Y variant of SEQ ID NO: 1]", "values": [
      {"measurement": "enrichment score", "value": -5.61}
    ]},
    {"binder": "GSPDEPIERAKECCKKGDIQCCLRYFEESGDPNVMLICLFCP (designed binder)", "note": "[Y04P variant of SEQ ID NO: 1]", "values": [
      {"measurement": "enrichment score", "value": 1.02}
    ]},
    {"binder": "GSPDEYIYRAKECCKKGDIQCCLRYFEESGDPNVMLICLFCP (designed binder)", "note": "[E06Y variant of SEQ ID NO: 1]", "values": [
      {"measurement": "enrichment score", "value": -2.33}
    ]},
    {"binder": "GSPDPYIERAKECCKKGDIQCCLRYFEESGDPNVMLICLFCP (designed binder)", "note": "[E03P variant of SEQ ID NO: 1]", "values": [
      {"measurement": "enrichment score", "value": -0.4}
    ]},
    {"binder": "GSPDEYPERAKECCKKGDIQCCLRYFEESGDPNVMLICLFCP (designed binder)", "note": "[I05P variant of SEQ ID NO: 1]", "values": [
      {"measurement": "enrichment score", "value": -0.43}
    ]},
    {"binder": "GSPDEYIERYKECCKKGDIQCCLRYFEESGDPNVMLICLFCP (designed binder)", "note": "[A08Y variant of SEQ ID NO: 1]", "values": [
      {"measurement": "enrichment score", "value": -3.35}
    ]}
  ]
}
